# Measured values from patent publication US20030119038A1, “NARC1, novel subtilase-like homologs” (priority 1999, published 2003).
# “Also recorded” adds a separate entry of the source.
# B1: C-terminal truncation M425: NARC1 terminating at residue M425; all of the cysteine-rich region removed (protein)
# chain: MGIRCSTWLRWPLSPQLLLLLLLCPTGSRAQDEDGDYEELMLALPSQEDSLVDEASHVATATFRRCSKEAWRLPGTYVVVLMEETQRLQVEQTAHRLQTWAARRGYVIKVLHVFYDLFPGFLVKMSSDLLGLALKLPHVEYIEEDSLVFAQSIPWNLERIIPAWQQTEEDSSPDGSSQVEVYLLDTSIQSGHREIEGRVTITDFNSVPEEDGTRFHRQASKCDSHGTHLAGVVSGRDAGVAKGTSLHSLRVLNCQGKGTVSGTLIGLEFIRKSQLIQPSGPLVVLLPLAGGYSRILNTACQRLARTGVVLVAAAGNFRDDACLYSPASAPEVITVGATNAQDQPVTLGTLGTNFGRCVDLFAPGKDIIGASSDCSTCYMSQSGTSQAAAHVAGIVAMMLNRDPALTLAELRQRLILFSTKDVINM
# modifications: mutant of rat sequence truncated sequence ends at amino acid Met 425
# notes: NARC1 terminating at residue M425; all of the cysteine-rich region removed
# B2: H225W: Full-length NARC1 point mutant; mutation of the active site histidine (protein)
# chain: MGIRCSTWLRWPLSPQLLLLLLLCPTGSRAQDEDGDYEELMLALPSQEDSLVDEASHVATATFRRCSKEAWRLPGTYVVVLMEETQRLQVEQTAHRLQTWAARRGYVIKVLHVFYDLFPGFLVKMSSDLLGLALKLPHVEYIEEDSLVFAQSIPWNLERIIPAWQQTEEDSSPDGSSQVEVYLLDTSIQSGHREIEGRVTITDFNSVPEEDGTRFHRQASKCDSWGTHLAGVVSGRDAGVAKGTSLHSLRVLNCQGKGTVSGTLIGLEFIRKSQLIQPSGPLVVLLPLAGGYSRILNTACQRLARTGVVLVAAAGNFRDDACLYSPASAPEVITVGATNAQDQPVTLGTLGTNFGRCVDLFAPGKDIIGASSDCSTCYMSQSGTSQAAAHVAGIVAMMLNRDPALTLAELRQRLILFSTKDVINMAWFPEDQRVLTPNRVATLPPSTQETGGQLLCRTVWSAHSGPTRTATATARCAPEEELLSCSSFSRSGRRRGDRIEAIGGQQVCKALNAFGGEGVYAVARCCLLPRVNCSIHNTPAARAGPQTPVHCHQKDHVLTGCSFHWEVENLRAQQQPLLRSRHQPGQCVGHQEASVHASCCHAPGLECKIKEHGIAGPAEQVTVACEAGWTLTGCNVLPGASLPLGAYSVDNVCVARIRDAGRADRTSEEATVAAAICCRSRPSAKASWVHQ
# modifications: mutant of rat sequence mutating amino acid His225Trp of SEQ ID NO9
# B3: C-terminal truncation V507: NARC1 terminating at residue V507; much of the CRR removed (protein)
# chain: MGIRCSTWLRWPLSPQLLLLLLLCPTGSRAQDEDGDYEELMLALPSQEDSLVDEASHVATATFRRCSKEAWRLPGTYVVVLMEETQRLQVEQTAHRLQTWAARRGYVIKVLHVFYDLFPGFLVKMSSDLLGLALKLPHVEYIEEDSLVFAQSIPWNLERIIPAWQQTEEDSSPDGSSQVEVYLLDTSIQSGHREIEGRVTITDFNSVPEEDGTRFHRQASKCDSHGTHLAGVVSGRDAGVAKGTSLHSLRVLNCQGKGTVSGTLIGLEFIRKSQLIQPSGPLVVLLPLAGGYSRILNTACQRLARTGVVLVAAAGNFRDDACLYSPASAPEVITVGATNAQDQPVTLGTLGTNFGRCVDLFAPGKDIIGASSDCSTCYMSQSGTSQAAAHVAGIVAMMLNRDPALTLAELRQRLILFSTKDVINMAWFPEDQRVLTPNRVATLPPSTQETGGQLLCRTVWSAHSGPTRTATATARCAPEEELLSCSSFSRSGRRRGDRIEAIGGQQV
# modifications: mutant of rat sequence truncated mutant ends at amino acid Val507
# notes: NARC1 terminating at residue V507; much of the CRR removed
# Key:
# NARC1 = experiment: Autoprocessing of NARC1 transiently expressed in COS-7 cells, Western blotting; assay type: cell-based, rat; details: C-terminal myc/His fusion transiently expressed in COS-7 cells, 60 kD processing product on Western blot
# Experimental: The wild-type NARC1-myc/His clone was transiently expressed in COS-7 cells. The cells were then harvested, lysed, and the protein extracted. Polyacrylamide gel electrophoresis was then carried out on the protein extracts, followed by Western blotting. The resulting membranes were probed using both anti-myc- and NARC1-specific antibodies. Routine techniques and protocols were followed. See, e.g., Ausubel et al.(1998), supra.
# This cleavage event maps to approximately the junction between the pro-domain and the enzymatic domain.
# Autoprocessing of NARC1 was investigated as follows. COS-7 cells were co-transfected with the following EGFP and myc plasmids: (A) wild-type NARC1-myc and wild-type NARC1-EGFP; (B) S385A NARC1-myc and S385A NARC1-EGFP; and (C) wild-type NARC1-myc and S385A NARC1-myc. The cells were then harvested, lysed, and the protein extracted. Polyacrylamide gel electrophoresis was then carried out on the protein extracts, followed by Western blotting. The resulting membranes were sequentially probed using first the anti-myc and then the anti-EGFP monoclonal antibodies (Abs). Thus, the experiment allowed sequential detection of the separate NARC1 products encoded from the two co-transfected plasmids.
# As indicated above, a series of C-terminal truncation mutants were generated. The truncation NARC1-myc/His clones were transiently expressed in COS-7 cells. The cells were then harvested, lysed, the protein extracted, and polyacrylamide gel electrophoresis carried out on the protein extracts. Western analysis was then carried out using both anti-myc and NARC1-specific antibodies.
# [1] = test system: cerebellar granule neurons (CGNs); experiment: Apoptosis after transient expression of NARC1-EGFP constructs in CGNs, Laser-Scanning Cytometry; assay type: cell-based, rat; details: for BAF sensitivity of induced cell death: CGNs, 100 μM BAF; for Resulting Cell Death Activity: EGFP construct transiently expressed in CGNs, percentage of GFP-positive cells undergoing apoptosis
# Text: Cerebellar granule neurons (CGNs) were transfected with a NARC1-enhanced green fluorescent protein (EGFP) expression construct (with the EGFP sequences located at the carboxy terminus of the fusion protein). Unless otherwise indicated, the construct utilized in the following experiments contained 2073 base pairs of the rat NARC1 transcript set forth in FIG. 5. Specifically, this corresponds to nucleotides 205-2277 and amino acid residues 56-746 of SEQ ID NO:4 and SEQ ID NO:3, respectively. The polypeptide sequence encoded by the NARC1 insert utilized herein has been set forth as SEQ ID NO:9 herein. The nucleotide sequence of this insert has been set forth as SEQ ID NO:10.
# To investigate NARC1-mediated neuronal cell death, transient expression of the EGFP clones was carried out in cerebellar granule neurons (CGNs). These studies are set forth in detail as follows.
Molecule,Autoprocessing Activity (NARC1),BAF sensitivity of induced cell death [1],Resulting Cell Death Activity [1],Autoprocessing Activity (NARC1; listed as V507 C-terminal truncation mutant),Autoprocessing Activity (NARC1; listed as V507 truncation)
B1,Normal processing.,insensitive.,Induces wild type,,
B2,reduces autoprocessing; also recorded: Reduced processing,,essentially a wild-type phenotype; also recorded: no effect on the cell death phenotype,,
B3,Marked increase in,insensitive.,Induces wild type,markedly increased level of autoprocessing,increased rate of processing
